One molecule from PMC3371134 (Journal of Neurochemistry, 2012) can be followed below.

The assay concerns the target calmodulin-Sepharose (calmodulin coupled to Sepharose beads) (UniProt P62157 1-149). The assay is described as follows: pull-down.

For APETEKAALAIQGKFRRFQKRKKDS [Pcp4l1 IQ motif synthetic peptide], the binding result is “binds”.
